# Experimental data: paper PMC4072508, “Genome-Wide Prediction and Validation of Peptides That Bind Human Prosurvival Bcl-2 Proteins” (PLoS Computational Biology, 2014)
# T1: Mcl-1, Q07820
# T1 chain: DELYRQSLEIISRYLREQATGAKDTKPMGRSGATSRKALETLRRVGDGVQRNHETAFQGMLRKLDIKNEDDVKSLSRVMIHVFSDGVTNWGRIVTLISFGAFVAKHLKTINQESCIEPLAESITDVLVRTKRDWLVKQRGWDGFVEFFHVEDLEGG
# B1: NXF3 (peptide)
# chain: FVENASIAYALKNVSGKIWDEDNEKI
# B2: GALNTL6 (peptide)
# chain: VPSGTSLARNLKRVAETWMDEFAEYI
# B3: ARSG (peptide)
# chain: PEVRKVLADVLQDIANDNISSADYTQ
# B4: SLITRK2 (peptide)
# chain: RLKVMPFAGVLEHIGGIMEIQLEENP
# B5: SEMA6B (peptide)
# chain: IPGSAVCAFDLTQVAAVFEGRFREQK
# B6: SRGAP2 (peptide)
# chain: AEIEMDYSRNLEKLAERFLAKTRSTK
# B7: BBC3 (peptide)
# chain: EQWAREIGAQLRRMADDLNAQYERRR
# B8: RTDR1 (peptide)
# chain: TYEKPQVAEALQRAARIAISVIEFKP
# B9: IPO9 (peptide)
# chain: AFVGRLVSTLISKAGRELGENLDQIL
# B10: PRKG1 (peptide)
# chain: RDSFKHLIGGLDDVSNKAYEDAEAKA
# B11: FAM129C (peptide)
# chain: CYRGQLAASVLRQISRELGPQEPTGS
# B12: DST (peptide)
# chain: LGKRTSSVQALKRSARELIEGSRDDS
# B13: VPS8 (peptide)
# chain: AIVADRMVEILFHYADRALKKCPDQG
# B14: RRP12 (peptide)
# chain: MKLRNLFTKFIRKFGFELVKRLLPEE
# B15: BFSP1 (peptide)
# chain: AYKTVEVVESIEKISTESIQTYEETA
# B16: NXF5 (peptide)
# chain: FVQVASAASALKDVSYKIYDDENQKI
# B17: GRIK3 (peptide)
# chain: DRFEGYCIDLLKELAHILGFSYEIRL
# B18: DNAH8 (peptide)
# chain: VLLLSSSVNSLRKAAHEALQDFQKYK
# B19: CLINT1 (peptide)
# chain: YKSLLLLAYLIRNGSERVVTSAREHI
# B20: NTRK1 (peptide)
# chain: QDKMLVAVKALKEASESARQDFQREA
# B21: KIT (peptide)
# chain: EGEEFTVTCTIKDVSSSVYSTWKREN
# B22: MIB1 (peptide)
# chain: FGDEGAVIEVLHRGSADLNARNKRRQ
# B23: TBRG4 (peptide)
# chain: DLDSNQAAMVLIRLSHLLSEKPEDKG
# B24: PGBD1 (peptide)
# chain: KKDKARVSELLQGLSFSGDSDVEKDN
# B25: TDRD6 (peptide)
# chain: GFKTTVYVSHINDLSDFYVQLIEDEA
# B26: MMAB (peptide)
# chain: GETDANVAKFLNRLSDYLFTLARYAA
# B27: NWD1 (peptide)
# chain: NPKNKTHACYLKELGEQFVVRANHQV
# B28: APC (peptide)
# chain: EDLQQVIASVLRNLSWRADVNSKKTL
# B29: NCAPD2 (peptide)
# chain: EGPEVICAQILQGCAKQALEKLEEKR
# B30: C7orf27 (peptide)
# chain: QDTEQFVATVLQAASRDLDWEVRAQG
# B31: NXF2 (peptide)
# chain: FVQDASAASALKDVSYKIYDDENQKI
# B32: MYH9 (peptide)
# chain: DPLNDNIATLLHQSSDKFVSELWKDV
# B33: EXOC7 (peptide)
# chain: TSMETIGAKALEDFADNIKNDPDKEY
# B34: SRGAP1 (peptide)
# chain: AEIETEYSRNLEKLAERFMAKTRSTK
# B35: PCDHB13 (peptide)
# chain: TGVNGEISYSLFQASEEIGKTFKINP
# B36: CDT1 (peptide)
# chain: ATPPAASPSALKGVSQDLLERIRAKE
# B37: PCNA (peptide)
# chain: SGEFARICRDLSHILDAVVISCAKDG
# B38: LONRF1 (peptide)
# chain: AASDFRTSVVLNHLAEKWFPGQRERA
# B39: DNM2 (peptide)
# chain: DLVVSELATVIKKCAEKLSSYPRLRE
# B40: RLN1 (peptide)
# chain: LFHLLEFCLLLNQFSRAVAAKWKDDV
# B41: APOB (peptide)
# chain: CVQSTKPSLMIQKAAIQALRKMEPKD
# B42: SULT6B1 (peptide)
# chain: EDLKENLAAGIKQIAEFLGFFLTGEQ
# B43: BAZ2A (peptide)
# chain: GKRMKQFPEVIKYLSRNVVHSVRREH
# B44: BBS4 (peptide)
# chain: AVLSPQSADNLKQVARSLFLLGKHKA
# B45: GON4L (peptide)
# chain: LLLPKGVVLKLKPVATRFPRKAWRQK
# B46: UTP20 (peptide)
# chain: DIARSTLAKIIEDLGVHFLLYVLKEL
# B47: GAPVD1 (peptide)
# chain: RFNLMQVGRLLQQLAMTGSEEGDPRT
# B48: HMHA1 (peptide)
# chain: TTLEMEFAKGLQKIAHNCRQSVMQEP
# B49: UBE3B (peptide)
# chain: PESTKRSALCIFKIARKLLFLFRIKE
# B50: INTS5 (peptide)
# chain: VPKIASVVGILGHLASRHGDSIRREL
# B51: KLC3 (peptide)
# chain: GADHPDVAKQLNNLALLCQNQGKFED
# B52: DYNC2H1 (peptide)
# chain: RDHDEFIINLIRGLGGNLNMKSRLEF
# B53: HERC2 (peptide)
# chain: RNIASQTVARLKDVARRISSCLDFEQ
# B54: GOLGA5 (peptide)
# chain: YGKVRKAASSIDQFSIRLGIFLRRYP
# Target: T1, Mcl-1, Q07820
# Assay: peptide SPOT array, c-Myc-tagged receptor at 1 uM or 100 nM, anti-c-Myc-Cy3
row,SPOT signal as a fraction of Bim BH3's signal on the same receptor and array,Binder
1,0.02,B1
2,0.02,B2
3,0.01,B3
4,0.02,B4
5,0.02,B5
6,0.08,B6
7,0.76,B7
8,0.02,B8
9,0.03,B9
10,0.01,B10
11,0.07,B11
12,0.05,B12
13,0.02,B13
14,0.14,B14
15,0.01,B15
16,0.02,B16
17,0.02,B17
18,0.19,B18
19,0.05,B19
20,0.02,B20
21,0.02,B21
22,0.05,B22
23,0.02,B23
24,0.01,B24
25,0.02,B25
26,0.02,B26
27,0.04,B27

row,SPOT signal as a fraction of Bim BH3's signal on the same receptor and array,Binder
1,0.07,B28
2,0.02,B29
3,0.02,B30
4,0.01,B31
5,0.02,B32
6,0.01,B33
7,0.11,B34
8,0.01,B35
9,0.03,B36
10,0.01,B37
11,0.07,B38
12,0.06,B39
13,0.02,B40
14,0.09,B41
15,0.02,B42
16,0.29,B43
17,0.2,B44
18,0.32,B45
19,0.02,B46
20,0.04,B47
21,0.02,B48
22,0.1,B49
23,0.05,B50
24,0.01,B51
25,0.03,B52
26,0.06,B53
27,0.29,B54
